Measurements published in US20150344570A1 (published 2015).
Positions count from the first letter of the chain named. Names may count otherwise. Values belong to the binder of their own block, whether it stands above or below them.

Assays:
FcγRIIa R = target: T1, FcγRIIa R (human, UniProt P12318 34-217); test: SPR, relative to GpH7-A5/GpH7-B3/GpL16-k0
T1 construct: extracellular domain; also called FcgRIIa R type; 2aR; not shown: His tag at the C terminus
T1 sequence (looked up): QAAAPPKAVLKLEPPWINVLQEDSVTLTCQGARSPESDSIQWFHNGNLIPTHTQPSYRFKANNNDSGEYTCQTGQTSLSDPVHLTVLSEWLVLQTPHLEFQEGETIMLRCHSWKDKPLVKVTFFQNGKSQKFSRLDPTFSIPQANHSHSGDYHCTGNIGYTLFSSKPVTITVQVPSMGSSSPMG

FcγRIIb [1] = target: T2, FcγRIIb (human, UniProt P31994 43-217); test: SPR, relative to GpH7-A5/GpH7-B3/GpL16-k0
T2 construct: extracellular domain; also called FcgRIIb; 2b; not shown: His tag at the C terminus
T2 sequence (looked up): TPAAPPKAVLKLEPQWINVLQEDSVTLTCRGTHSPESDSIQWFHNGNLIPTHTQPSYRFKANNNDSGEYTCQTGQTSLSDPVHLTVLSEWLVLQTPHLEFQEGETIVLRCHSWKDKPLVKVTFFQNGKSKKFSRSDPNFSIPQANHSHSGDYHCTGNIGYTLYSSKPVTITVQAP

[2] = target: T3, FcγRIIa H (FcγRIIa type H, His at position 131), extracellular domain with C-terminal His tag (human, UniProt P12318 34-217); test: SPR Biacore, relative binding, GpH7-B3/GpL16-k0 (HoCon Ab)=100
T3 construct: extracellular domain; also called FcgRIIa H; 2aH
T3 sequence (looked up): T1 sequence (looked up) with R134H
Protocol: Analysis of interaction between objective antibody and the FcγR was carried out using Biacore T100 (GE Healthcare). HBS-EP+ (GE Healthcare) was used as the running buffer, and the measurement temperature was set to 25° C. Chips produced by immobilizing the antigen peptide by the amine coupling method to a Series S Sencor Chip CM5 (GE Healthcare), or alternatively, chips produced by allowing preliminarily biotinylated antigen peptides to interact with and immobilize onto a Series S Sensor Chip SA (certified) (GE Healthcare) were used. Antibodies of interest were captured onto an antigen peptide-immobilized chip, and allowed to interact to each FcγR diluted with running buffer. To regenerate and repeatedly use the chip, the antibodies captured on the chip were washed off by reacting 10 mM glycine-HCl, pH 1.5.

FcγRIIa H = target: T4, FcγRIIa H (human, UniProt P12318 34-217); test: SPR (Biacore), antibody captured, FcγR analyte; binding relative to GpH7-A5/GpH7-B3/GpL16-k0 = 100
T4 construct: extracellular domain; also called FcgRIIa H; FcγRIIa type H
T4 sequence (looked up): T1 sequence (looked up) with R134H

FcγRIIb [3] = target: T5, FcγRIIb (human, UniProt P31994 43-217); test: as above
T5 construct: extracellular domain; also called FcgRIIb; 2b
T5 sequence (looked up): T2 sequence (looked up)

B1: GpH7-A5/GpH7-B3 variant A327_01G/GpL16-k0 (antibody, human IgG1, kappa)
heavy 1: not shown
heavy 2: not shown
light: DIVMTQSPLSLPVTPGEPASISCQASESLVHSNRNTYLHWYLQKPGQSPQLLIYKVSNRFSGVPDRFSGSGSGTDFTLKISRVEAEDVGVYYCSQNTHVPPTFGQGTKVEIERTVAAPSVFIFPPSDEQLKSGTASVVCLLNNFYPREAKVQWKVDNALQSGNSQESVTEQDSKDSTYSLSSTLTLSKADYEKHKVYACEVTHQGLSSPVTKSFNRGEC
notes: Heterodimerized anti-glypican-3 IgG1; mutation in the GpH7-B3 chain only; also called He Ab
He/Con_2aR (FcγRIIa R): 98.2 control = 100
He/Con_2b (FcγRIIb [1]): 116 control = 100

B2: GpH7-B3 variant I332_02A/GpL16-k0 (antibody, human IgG1, kappa)
heavy: not shown
light: B1 light
notes: both H chains mutated; also called Ho Ab
Ho/Con_2aH [2]: 119 % of control

B3: GpH7-B3 variant G236_03V/GpL16-k0 (antibody, human IgG1, kappa)
heavy: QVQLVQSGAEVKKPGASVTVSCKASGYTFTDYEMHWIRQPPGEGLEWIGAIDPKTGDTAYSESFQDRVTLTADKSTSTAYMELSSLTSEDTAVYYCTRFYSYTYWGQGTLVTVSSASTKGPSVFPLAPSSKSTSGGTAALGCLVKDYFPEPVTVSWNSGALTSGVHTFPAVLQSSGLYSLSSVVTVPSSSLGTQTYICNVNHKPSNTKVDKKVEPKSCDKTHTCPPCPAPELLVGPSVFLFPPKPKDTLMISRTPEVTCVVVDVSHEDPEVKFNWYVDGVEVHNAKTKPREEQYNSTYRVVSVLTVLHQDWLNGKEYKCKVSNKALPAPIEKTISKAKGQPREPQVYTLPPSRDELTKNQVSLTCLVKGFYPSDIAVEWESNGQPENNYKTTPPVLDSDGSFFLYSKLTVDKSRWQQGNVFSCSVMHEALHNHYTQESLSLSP
light: B1 light
notes: as for B2
Ho/Con_2aH [2]: 111 % of control

B4: GpH7-B3 variant I332_09D/GpL16-k0 (antibody, human IgG1, kappa)
heavy: not shown
light: B1 light
notes: as for B2
Ho/Con_2aH [2]: 130 % of control

B5: GpH7-B3 variant H268_13S/GpL16-k0 (antibody, human IgG1, kappa)
heavy: not shown
light: B1 light
notes: as for B2
Ho/Con_2aH [2]: 114 % of control

B6: GpH7-B3 variant I332_10E/GpL16-k0 (antibody, human IgG1, kappa)
heavy: not shown
light: B1 light
notes: as for B2
Ho/Con_2aH [2]: 117 % of control

B8: GpH7-B3 variant G236_10E/GpL16-k0 (antibody, human IgG1, kappa)
heavy: not shown
light: B1 light
notes: as for B2
Ho/Con_2aH [2]: 122 % of control

B11: GpH7-B3 variant I332_04F/GpL16-k0 (antibody, human IgG1, kappa)
heavy: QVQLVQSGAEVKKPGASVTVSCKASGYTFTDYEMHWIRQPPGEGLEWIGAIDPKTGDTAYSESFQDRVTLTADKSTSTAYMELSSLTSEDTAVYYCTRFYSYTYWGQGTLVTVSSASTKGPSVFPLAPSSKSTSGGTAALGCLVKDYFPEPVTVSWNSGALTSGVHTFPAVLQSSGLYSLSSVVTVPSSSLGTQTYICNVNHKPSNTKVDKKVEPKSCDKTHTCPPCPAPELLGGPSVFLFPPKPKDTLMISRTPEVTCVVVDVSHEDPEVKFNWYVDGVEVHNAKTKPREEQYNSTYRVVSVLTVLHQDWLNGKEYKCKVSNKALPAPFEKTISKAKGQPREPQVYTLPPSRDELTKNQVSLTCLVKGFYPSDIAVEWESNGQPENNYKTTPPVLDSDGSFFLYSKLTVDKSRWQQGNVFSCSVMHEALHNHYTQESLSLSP
light: B1 light
notes: as for B2
Ho/Con_2aH [2]: 111 % of control

B13: GpH7-B3 variant K334_07[ (read as K334_07I)/GpL16-k0 (antibody, human IgG1, kappa)
heavy: not shown
light: B1 light
notes: as for B2
Ho/Con_2aH [2]: 116 % of control

B16: GpH7-B3 variant I332_06M/GpL16-k0 (antibody, human IgG1, kappa)
heavy: not shown
light: B1 light
notes: as for B2
Ho/Con_2aH [2]: 114 % of control

B17: GpH7-B3 variant I332_03V/GpL16-k0 (antibody, human IgG1, kappa)
heavy: not shown
light: B1 light
notes: as for B2
Ho/Con_2aH [2]: 106 % of control

B19: GpH7-B3 variant H268_10E/GpL16-k0 (antibody, human IgG1, kappa)
heavy: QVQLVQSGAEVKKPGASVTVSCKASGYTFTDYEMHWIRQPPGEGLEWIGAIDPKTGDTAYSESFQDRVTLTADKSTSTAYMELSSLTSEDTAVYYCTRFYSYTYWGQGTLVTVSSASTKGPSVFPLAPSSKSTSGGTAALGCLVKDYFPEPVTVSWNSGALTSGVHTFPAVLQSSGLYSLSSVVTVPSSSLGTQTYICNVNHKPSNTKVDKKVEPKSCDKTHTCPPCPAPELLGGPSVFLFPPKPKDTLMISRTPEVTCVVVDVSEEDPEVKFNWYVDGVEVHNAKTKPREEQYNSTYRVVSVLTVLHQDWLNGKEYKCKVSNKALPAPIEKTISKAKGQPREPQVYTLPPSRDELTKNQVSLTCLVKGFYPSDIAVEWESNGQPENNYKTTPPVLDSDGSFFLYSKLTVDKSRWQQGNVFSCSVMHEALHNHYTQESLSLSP
light: B1 light
notes: as for B2
Ho/Con_2aH [2]: 126 % of control

B20: GpH7-A5/GpH7-B3 variant Y300_19Q/GpL16-k0 (antibody, human IgG1, kappa)
heavy 1: not shown
heavy 2: not shown
light: B1 light
notes: as for B1
He/Con_2aR (FcγRIIa R): 99.7 control = 100
He/Con_2b (FcγRIIb [1]): 108 control = 100

B25: GpH7-A5/GpH7-B3 variant Y300_19Q/GpL16-k0 (antibody, human IgG1, kappa)
heavy 1: not shown
heavy 2: not shown
light: B1 light
notes: Heterodimerized antibody, alteration in one H chain only; also called He Ab Y300Q
He/Con_2aH (FcγRIIa H): 96.1 % of control
He/Con_2b (FcγRIIb [3]): 108 % of control

B30: GpH7-A5/GpH7-B3 variant Y296_20W/GpL16-k0 (antibody, human IgG1, kappa)
heavy 1: not shown
heavy 2: not shown
light: B1 light
notes: Heterodimerized antibody, alteration in one H chain only; also called He Ab Y296W
He/Con_2aH (FcγRIIa H): 97.6 % of control
He/Con_2b (FcγRIIb [3]): 103 % of control

B31: GpH7-A5/GpH7-B3 variant I332_02A/GpL16-k0 (antibody, human IgG1, kappa)
heavy 1: not shown
heavy 2: not shown
light: B1 light
notes: as for B1
He/Con_2aR (FcγRIIa R): 97.6 control = 100
He/Con_2b (FcγRIIb [1]): 103 control = 100

B32: GpH7-B3 variant A330_12R/GpL16-k0 (antibody, human IgG1, kappa)
heavy: not shown
light: B1 light
notes: as for B2
Ho/Con_2aH [2]: 110 % of control

B36: GpH7-A5/GpH7-B3 variant Y300_10E/GpL16-k0 (antibody, human IgG1, kappa)
heavy 1: not shown
heavy 2: not shown
light: B1 light
notes: Heterodimerized antibody, alteration in one H chain only; also called He Ab Y300E
He/Con_2aH (FcγRIIa H): 97.2 % of control
He/Con_2b (FcγRIIb [3]): 134 % of control

B37: GpH7-B3 variant H268_09D/GpL16-k0 (antibody, human IgG1, kappa)
heavy: not shown
light: B1 light
notes: as for B2
Ho/Con_2aH [2]: 136 % of control

B38: GpH7-A5/GpH7-B3 variant L328_19Q/GpL16-k0 (antibody, human IgG1, kappa)
heavy 1: not shown
heavy 2: not shown
light: B1 light
notes: as for B1
He/Con_2aR (FcγRIIa R): 89.3 control = 100
He/Con_2b (FcγRIIb [1]): 105 control = 100

B39: GpH7-B3 variant H268_18N/GpL16-k0 (antibody, human IgG1, kappa)
heavy: not shown
light: B1 light
notes: as for B2
Ho/Con_2aH [2]: 110 % of control

B40: GpH7-B3 variant G236_07I/GpL16-k0 (antibody, human IgG1, kappa)
heavy: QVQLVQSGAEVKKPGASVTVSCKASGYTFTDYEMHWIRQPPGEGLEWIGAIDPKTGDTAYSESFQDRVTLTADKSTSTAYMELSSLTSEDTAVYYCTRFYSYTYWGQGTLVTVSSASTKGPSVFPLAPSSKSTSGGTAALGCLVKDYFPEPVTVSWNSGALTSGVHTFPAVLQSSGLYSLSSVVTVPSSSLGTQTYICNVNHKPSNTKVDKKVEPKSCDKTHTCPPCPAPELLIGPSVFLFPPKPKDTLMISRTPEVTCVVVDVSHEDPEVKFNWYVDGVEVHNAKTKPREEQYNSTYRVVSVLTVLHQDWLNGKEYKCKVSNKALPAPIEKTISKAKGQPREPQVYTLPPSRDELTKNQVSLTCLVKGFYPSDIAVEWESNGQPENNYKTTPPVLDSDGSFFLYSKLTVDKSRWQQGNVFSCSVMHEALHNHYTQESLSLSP
light: B1 light
notes: as for B2
Ho/Con_2aH [2]: 101 % of control

B42: GpH7-A5/GpH7-B3 variant S239_03V/GpL16-k0 (antibody, human IgG1, kappa)
heavy 1: not shown
heavy 2: not shown
light: B1 light
notes: as for B1
He/Con_2aR (FcγRIIa R): 99.9 control = 100
He/Con_2b (FcγRIIb [1]): 108 control = 100

Other lines, results leading:

Ho/Con_2aH [2]: 110 % of control
B7: GpH7-B3 variant K334_15Y/GpL16-k0 (antibody, human IgG1, kappa)
heavy: not shown
light: B1 light
notes: as for B2

Ho/Con_2aH [2]: 114 % of control
B9: GpH7-B3 variant I332_19Q/GpL16-k0 (antibody, human IgG1, kappa)
heavy: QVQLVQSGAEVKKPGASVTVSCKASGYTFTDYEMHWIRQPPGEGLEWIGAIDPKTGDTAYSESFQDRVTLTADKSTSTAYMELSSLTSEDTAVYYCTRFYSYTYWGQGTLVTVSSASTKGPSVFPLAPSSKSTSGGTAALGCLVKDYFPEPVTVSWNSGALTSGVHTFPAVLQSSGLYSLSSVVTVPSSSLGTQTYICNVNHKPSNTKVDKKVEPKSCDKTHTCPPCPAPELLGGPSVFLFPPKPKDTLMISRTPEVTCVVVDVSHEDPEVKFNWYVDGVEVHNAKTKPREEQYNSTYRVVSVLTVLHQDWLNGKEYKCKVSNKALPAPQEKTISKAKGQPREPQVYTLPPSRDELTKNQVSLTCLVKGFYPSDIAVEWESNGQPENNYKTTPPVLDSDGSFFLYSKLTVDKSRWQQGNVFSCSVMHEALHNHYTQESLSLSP
light: B1 light
notes: as for B2

Ho/Con_2aH [2]: 100 % of control
B10: GpH7-B3 variant I336_06M/GpL16-k0 (antibody, human IgG1, kappa)
heavy: not shown
light: B1 light
notes: as for B2

Ho/Con_2aH [2]: 101 % of control
B12: GpH7-B3 variant K326_10E/GpL16-k0 (antibody, human IgG1, kappa)
heavy: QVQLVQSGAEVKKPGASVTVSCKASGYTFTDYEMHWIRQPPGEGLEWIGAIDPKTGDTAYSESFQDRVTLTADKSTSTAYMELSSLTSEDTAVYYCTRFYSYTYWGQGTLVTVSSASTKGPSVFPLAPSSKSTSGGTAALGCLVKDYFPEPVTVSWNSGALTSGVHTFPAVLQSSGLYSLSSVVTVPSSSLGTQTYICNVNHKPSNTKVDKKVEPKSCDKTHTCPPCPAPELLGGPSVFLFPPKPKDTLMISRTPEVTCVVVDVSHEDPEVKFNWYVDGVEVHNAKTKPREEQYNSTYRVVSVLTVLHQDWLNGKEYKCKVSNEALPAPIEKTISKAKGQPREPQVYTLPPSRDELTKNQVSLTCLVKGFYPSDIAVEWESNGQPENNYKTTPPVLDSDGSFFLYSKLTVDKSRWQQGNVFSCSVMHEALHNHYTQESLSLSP
light: B1 light
notes: as for B2

Ho/Con_2aH [2]: 111 % of control
B14: GpH7-B3 variant K334_03V/GpL16-k0 (antibody, human IgG1, kappa)
heavy: not shown
light: B1 light
notes: as for B2

Ho/Con_2aH [2]: 126 % of control
B15: GpH7-B3 variant I332_15Y/GpL16-k0 (antibody, human IgG1, kappa)
heavy: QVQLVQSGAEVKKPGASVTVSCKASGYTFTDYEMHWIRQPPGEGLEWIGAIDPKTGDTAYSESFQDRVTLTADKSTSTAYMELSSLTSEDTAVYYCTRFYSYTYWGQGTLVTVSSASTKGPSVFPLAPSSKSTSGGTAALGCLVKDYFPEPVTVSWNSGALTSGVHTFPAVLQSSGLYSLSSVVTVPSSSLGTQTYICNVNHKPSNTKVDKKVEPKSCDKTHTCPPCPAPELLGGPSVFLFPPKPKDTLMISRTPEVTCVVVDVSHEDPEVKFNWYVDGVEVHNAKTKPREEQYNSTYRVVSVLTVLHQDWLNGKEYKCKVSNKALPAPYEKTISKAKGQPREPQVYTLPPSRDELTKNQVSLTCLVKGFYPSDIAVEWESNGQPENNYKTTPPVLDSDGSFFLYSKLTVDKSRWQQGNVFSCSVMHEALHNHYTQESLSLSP
light: B1 light
notes: as for B2

Ho/Con_2aH [2]: 113 % of control
B18: GpH7-B3 variant K326_09D/GpL16-k0 (antibody, human IgG1, kappa)
heavy: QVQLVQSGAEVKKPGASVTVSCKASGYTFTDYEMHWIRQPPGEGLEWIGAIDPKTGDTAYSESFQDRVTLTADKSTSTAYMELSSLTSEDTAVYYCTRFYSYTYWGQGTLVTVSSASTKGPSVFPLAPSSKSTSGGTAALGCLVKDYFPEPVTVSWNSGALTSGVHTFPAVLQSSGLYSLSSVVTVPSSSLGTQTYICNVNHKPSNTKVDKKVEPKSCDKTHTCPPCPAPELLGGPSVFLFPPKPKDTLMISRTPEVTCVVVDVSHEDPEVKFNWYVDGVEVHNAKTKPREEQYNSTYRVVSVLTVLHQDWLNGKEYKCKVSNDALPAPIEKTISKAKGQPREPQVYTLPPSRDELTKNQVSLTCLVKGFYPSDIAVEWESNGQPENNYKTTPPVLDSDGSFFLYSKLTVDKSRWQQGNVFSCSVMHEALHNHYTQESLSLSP
light: B1 light
notes: as for B2

Ho/Con_2aH [2]: 103 % of control
B21: GpH7-B3 variant K334_08L/GpL16-k0 (antibody, human IgG1, kappa)
heavy: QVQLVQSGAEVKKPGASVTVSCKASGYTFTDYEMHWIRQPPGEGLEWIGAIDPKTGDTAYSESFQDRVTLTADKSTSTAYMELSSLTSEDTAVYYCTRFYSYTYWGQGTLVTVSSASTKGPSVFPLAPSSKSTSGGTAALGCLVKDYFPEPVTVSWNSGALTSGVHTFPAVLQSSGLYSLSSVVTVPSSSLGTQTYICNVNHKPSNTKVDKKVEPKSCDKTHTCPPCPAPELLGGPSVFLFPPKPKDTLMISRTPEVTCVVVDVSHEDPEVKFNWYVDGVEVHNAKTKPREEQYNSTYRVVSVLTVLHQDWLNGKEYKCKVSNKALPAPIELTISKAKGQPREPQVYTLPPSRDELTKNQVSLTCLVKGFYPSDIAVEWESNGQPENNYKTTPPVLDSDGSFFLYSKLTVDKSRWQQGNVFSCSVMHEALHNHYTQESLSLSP
light: B1 light
notes: as for B2

Ho/Con_2aH [2]: 105 % of control
B22: GpH7-B3 variant K334_14T/GpL16-k0 (antibody, human IgG1, kappa)
heavy: not shown
light: B1 light
notes: as for B2

Ho/Con_2aH [2]: 119 % of control
B23: GpH7-B3 variant I332_16H/GpL16-k0 (antibody, human IgG1, kappa)
heavy: not shown
light: B1 light
notes: as for B2

Ho/Con_2aH [2]: 118 % of control
B24: GpH7-B3 variant K326_14T/GpL16-k0 (antibody, human IgG1, kappa)
heavy: not shown
light: B1 light
notes: as for B2

Ho/Con_2aH [2]: 103 % of control
B26: GpH7-B3 variant K334_04F/GpL16-k0 (antibody, human IgG1, kappa)
heavy: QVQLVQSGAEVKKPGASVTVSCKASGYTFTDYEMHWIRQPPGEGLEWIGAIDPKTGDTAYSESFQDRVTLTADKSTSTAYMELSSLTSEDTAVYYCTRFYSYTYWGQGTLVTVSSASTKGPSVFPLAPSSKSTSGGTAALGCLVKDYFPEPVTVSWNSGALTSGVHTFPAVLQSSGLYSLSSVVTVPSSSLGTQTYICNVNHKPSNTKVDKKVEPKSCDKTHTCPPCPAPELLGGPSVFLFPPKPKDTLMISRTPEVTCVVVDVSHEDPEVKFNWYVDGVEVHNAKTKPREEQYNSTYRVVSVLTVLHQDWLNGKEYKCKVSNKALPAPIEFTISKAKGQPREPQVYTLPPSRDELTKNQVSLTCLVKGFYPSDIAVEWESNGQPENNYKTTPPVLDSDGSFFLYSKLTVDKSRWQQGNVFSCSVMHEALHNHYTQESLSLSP
light: B1 light
notes: as for B2

Ho/Con_2aH [2]: 100 % of control
B27: GpH7-B3 variant K326_19Q/GpL16-k0 (antibody, human IgG1, kappa)
heavy: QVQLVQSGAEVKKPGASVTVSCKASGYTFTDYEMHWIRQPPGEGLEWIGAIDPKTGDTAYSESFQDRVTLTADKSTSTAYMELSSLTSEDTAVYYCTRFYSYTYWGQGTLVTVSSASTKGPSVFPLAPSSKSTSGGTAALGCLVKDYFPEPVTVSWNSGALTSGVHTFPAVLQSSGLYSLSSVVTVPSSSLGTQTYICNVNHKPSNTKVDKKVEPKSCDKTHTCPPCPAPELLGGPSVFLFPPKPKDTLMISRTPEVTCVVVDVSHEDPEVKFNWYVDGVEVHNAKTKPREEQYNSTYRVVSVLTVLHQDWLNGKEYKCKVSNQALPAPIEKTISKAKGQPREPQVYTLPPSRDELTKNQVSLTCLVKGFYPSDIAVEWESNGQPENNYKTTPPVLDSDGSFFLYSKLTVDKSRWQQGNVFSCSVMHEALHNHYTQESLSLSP
light: B1 light
notes: as for B2

Ho/Con_2aH [2]: 101 % of control
B28: GpH7-B3 variant K326_06M/GpL16-k0 (antibody, human IgG1, kappa)
heavy: not shown
light: B1 light
notes: as for B2

Ho/Con_2aH [2]: 118 % of control
B29: GpH7-B3 variant I332_18N/GpL16-k0 (antibody, human IgG1, kappa)
heavy: not shown
light: B1 light
notes: as for B2

Ho/Con_2aH [2]: 121 % of control
B33: GpH7-B3 variant I332_13S/GpL16-k0 (antibody, human IgG1, kappa)
heavy: not shown
light: B1 light
notes: as for B2

Ho/Con_2aH [2]: 101 % of control
B34: GpH7-B3 variant I336_08L/GpL16-k0 (antibody, human IgG1, kappa)
heavy: not shown
light: B1 light
notes: as for B2

Ho/Con_2aH [2]: 101 % of control
B35: GpH7-B3 variant K334_16H/GpL16-k0 (antibody, human IgG1, kappa)
heavy: not shown
light: B1 light
notes: as for B2

Ho/Con_2aH [2]: 125 % of control
B41: GpH7-B3 variant I332_14T/GpL16-k0 (antibody, human IgG1, kappa)
heavy: not shown
light: B1 light
notes: as for B2
